In PMC3358306 (PLoS ONE, 2012):
“And” between values parts separate entries of the source, which are not always exact repeats. Identical values can stand only once.

Columns and labels:
AUC = target: the molecule itself; assay: AUC
[1] = target: the molecule itself; assay: SEC; analytical Superdex 200, sample diluted in buffer with 2 mM ATP; 50 mM Tris pH 8.0, 200 mM NaCl, 0.2% β-mercaptoethanol; 3 µg/µl protein
[2] = target: the molecule itself; assay: SEC; analytical Superdex 200, sample diluted in buffer with 2 mM adenosine; 50 mM Tris pH 8.0, 200 mM NaCl, 0.2% β-mercaptoethanol; 3 µg/µl protein
[3] = target: the molecule itself; assay: SEC; analytical Superdex 200, no ligand; 50 mM Tris pH 8.0, 200 mM NaCl, 0.2% β-mercaptoethanol; 3 µg/µl protein; size by calibration proteins

B1: Archaeoglobus fulgidus Rio1 kinase Y200D mutant (enzyme, UniProt O28471 1-258, looked up)
chain: MKDLKKIESYLDKLRIKEKDGEERKIYAEVLDGRTLKTLYKLSAKGYITAMGGVISTGKEANVFYADGVFDGKPVAMAVKIYRIETSEFDKMDEYLYGDERFDMRRISPKEKVFIWTEKEFRNLERAKEAGVSVPQPYTYMKNVLLMEFIGEDELPAPTLVELGRELKELDVEGIFNDVVENVKRLYQEAELVHADLSEDNIMYIDKVYFIDMGQAVTLRHPMAESYLERDVRNIIRFFSKYGVKADFEEMLKEVKGE
notes: Rio1 kinase of Archaeoglobus fulgidus, full length, with Tyr 200 mutated to Asp; also called afRio1 Y200D; afRio1Y200D
AUC
  stoichiometry N: 4 and 3

B2: human Rio1 kinase, residues 106 to 494, unphosphorylated (domain or fragment, UniProt Q9BRS2 106-494, looked up)
chain: STPADKVLRKFENKINLDKLNVTDSVINKVTEKSRQKEADMYRIKDKADRATVEQVLDPRTRMILFKMLTRGIITEINGCISTGKEANVYHASTANGESRAIKIYKTSILVFKDRDKYVSGEFRFRHGYCKGNPRKMVKTWAEKEMRNLIRLNTAEIPCPEPIMLRSHVLVMSFIGKDDMPAPLLKNVQLSESKARELYLQVIQYMRRMYQDARLVHADLSEFNMLYHGGGVYIIDVSQSVEHDHPHALEFLRKDCANVNDFFMRHSVAVMTVRELFEFVTDPSITHENMDAYLSKAMEIASQRTKEERSSQDHVDEEVFKRAYIPRTLNEVKNYERDMDIIMKLKEEDMAMNAQQDNILYQTVTGLKKDLSGVQKVPALLENQVEERT
notes: Rio1 kinase, human, residues 106 to 494; monomer MW 45.1 kDa as printed; also called hRio1; unphosphorylated hRio1; source: size exclusion; purified in the presence of 1 mM adenosine to prevent autophosphorylation
[1]
  stoichiometry N: 2
[2]
  stoichiometry N: 4

B3: autophosphorylated human Rio1 kinase, residues 106 to 494 (domain or fragment, UniProt Q9BRS2 106-494, looked up)
chain: B2 chain
modifications: autophosphorylated; site not given
notes: Rio1 kinase, human, residues 106 to 494, autophosphorylated; Same construct as m4, autophosphorylated in vitro; also called phosphorylated hRio1; autophosphorylated hRio1; source: purified hRio1 incubated at 25°C for 1 hr in 50 mM Tris pH 8.0, 200 mM NaCl, 2 mM MgCl2 and 0.2% β-mercaptoethanol
[3]
  stoichiometry N: 2
